The text below walks through data of the DeepSol protein solubility set.

The data set in a line: soluble on expression in E. coli; label from the status in PepcDB or PDB records.
On to “EPAQVRLLSSDFVLPGKHQRLAGWAREAGVELRGLRLGIGEAPPGEWLDGGNLLILDTPRPTDRAQVEEALGERLQGGTQPWIRVGGGPPGFGNLPAALGGRLVGYYANGGEANLRRLFEAVRRWHAGLTVDALPAPQPLAQAGFYHPDAPAPFAVLADYLAWGASRWASDAPRIAFLIPRGAIADAQTGAIDELLRRSERHGQAPLAVWFDDSDPEALRKSFAGADVQALVNLQHLQNGPARRAEFLALDVPVLQTLGYRDGNEADWLAAASGVAPRTAAAFLGMPETWGMSDPLVISALENGEPKLMAGQAEALLDKLDRLLRLRRLPAADKHLALMFWNHPEGEKNVAASHLNVPASLARLGEALRAAGYRVATSDESALIDTAQRLLGGYYRPQTLDALYRDGLAASLPLDAYLHWFEALPADLREEMRARWGDPRRHWALRDIDGQRRFVFPAARLGNLLLLPQPPRAGRPGEAYHDSAVPPDHLYLAVYQFVREGFGADALIHFGTHGTQEWLPGKDRGLAVGDYPLRALGDLPVFYPYIQDNVGEAIQARRRGRAVTVSHQTPSFAPAGLYDELRDLHQLIHEYQQLDEGAVRERSAEQIRAAVRAAHMNDDLGWSEAAMHEDFPAFLGVLHDHLHRLAGSAMPLGLHTFGVAASPELRLGTVMQQLGEPYYRALGLDPDELFAADFRALREGRAYRTLQRYLRDGGEIAKVADPRLREQLLRARELDRQLADTGELEALLAGLAGRFVAPGPGGDPIRNPQVPSGRNLFAFEADKVPTRAAYEAGAEAFGQLLESYRAEHQGRAPEKLAFSLWSSETMRHLGIVESQALHALGLRPRWDAGGRLLALDIVPAAELGRPRVDVVLQVTSVYRDQFDGFMRLLAEAIERLAALDEPGNPLARNSQALERRLRERGVEAPLAQRLSRLRLFGNAPGDYGTGVTQLTLDSTRWDDDSALAEQFLGRLQYAYGSRDWGVKLDGGNLFAEQLKGVQAAILSRSSTLNGVLSTDHPFEYLGGLSLAVRHLDGASPALYIADLRQRQPRTTAAAQFLASELRGRYLSPQWIAAMQREGYAGSLEMLDLANNLWGWQAADRIMVRADQWQALHDTFVMDRRELGLAEWFETHNPTAQAQIIARMAEAIRKGYWDASEQTRRELAERWRQLAAAGAGEVGAATTREFIERMAGGFGEAAAQAEGAAASGAGETVSGRVLEEVAPPPSGEPQ”, for which the “soluble on expression in E. coli” value was “not soluble”.

As for “ERSPFPELLPFGEVSVRDSMLYLFVRPDMAGKEVFIPVNGEFLEEVSNLTNASPLNMDIRKTGVRIRMPASMPESFLVLALAFDRNDFVLAGRPQGYPLHMANSSRIYGHSCWDYYTGFKSITGMKWQAVSAPRAIIYTDMEAGKTLRLSVGREEREITLEGGKSEEVSISHDGLSWGKPYVRQVGGVFGMIPDNILRGDSIPLPLTKGWEEMPVGQVEKKPWGEISSCLLVQDIVSDREQTVACHLTFGNGIYVTLNGKQITAELIRETGLAHELTVCLPLQKGKNRLAVKFMNRFGEELIRGVSWPKSYTRYLLPIEGFSLEKVGKKGIPIELRPASVRYQGASASIPNIALL”, the “soluble on expression in E. coli” value is on record as “not soluble”. On to “ESEILGLFQRWQAAHGQRSGKALEGVYAPRLDYYGRAQTRERTLSAKQAFFARHPDFEQRIVAAPQIVPGDQEGRYEVRFVKQVRLDGRLRNYPGLLLAERAGPGDTWRFVGESDEITRYAVDPRYTPLARGRFAGTEADFAWVVAHAPNSAALCDEYEDCRCDLWSADARVPPK”, for which the “soluble on expression in E. coli” value is “not soluble”. Take “ETIASELKAIGKELEDQKKEENIQIAKIAKEKFDFLSTFKVGPYDLIDEDIQMKIKRTLYSSLDYKKENIEKLKEILEILKKNSEHYNIIGRLIYHISWGIQFQIEQNLELIQNGVENLSQEESKSLLMQIKSNLEIKQRLKKTLNETLKVYNQNTQDNEKILAEHFNKYYKDFDTLKPAF”: the “soluble on expression in E. coli” value is on record as “soluble”.

For “ETQQRCVTATDYDTFVSERFGSIIQAVQTFTDSTKPGYAFIAAKPKSGLYLTTVQREDIKNYLKDYNLAPITPSIISPNYLFIKTNLKVTYALNKLQESEQWLEGQIIDKIDRYYTEDVEIFNSSFAKSKMLTYVDDADHSVIGSSATIQMVREVQNFYKTPEAGIKYNNQIKDRSMESNTFSFNSGRKVVNPDTGLEEDVLYDVRIVSTDRDSKGIGKVIIGPFASGDVTENENIQPYTGNDFNKLANSDGRDKYYVIGEINYPADVIYWNIAKINLTSEKFEVQTIELYSDPTDDVIFTRDGSLIVFENDLRPQYLTIDLEPISQLEHHHHHH”, the “soluble on expression in E. coli” value is “soluble”. As for “EVLRVQDKYFHIKCFVCKACGCDLAEGGFFVRQGEYICTLDYQRLYGTRCFSCDQFIEGEVVSALGKTYHPDCFVCAVCRLPFPPGDRVTFNGKECMCQKCSLPVSVGSSAHLSQGLRSCGGCGTEIKNGQALVALDKHWHLGCFKCKSCGKLLNAEYISKDGLPYCEADYHAKFGIRCDSCEKYITGRVLEAGEKHYHPSCALCVRCGQMFAEGEEMYLQGSSIWHPACRQAARTEDRNKETRTSSESIISVPASSTSGSPSRVIYAKLGGEILDYRDLAALPKSKAIYDIDRPDMISYSPYISHSAGDRQSYGEGDQDDRSYKQCRTSSPSSTGSVSLGRYTPTSRSPQHYSRPGSESGRSTPSLSVLSDSKPPPSTYQQAPRHFHVPDTGVKDNIYRKPPIYRQHAARRSDGEDGSLDQDNRKKSSWLMLKGDADTRTNSPDLDTQSLSHSSGTDRDPLQRMAGDSFHSQYKIYPYDSLIVTNRIRVKLPKDVDRTRLERHLSPEEFQEVFGMSIEEFDRLALWKRNDLKKKALLF”, the entry is “soluble”; as for “EVPTIDGRAKIRIEAGTQPGKMLRLRNKGLPSVNGYGMGDQLVNVNVYIPESIDAKDEQAIAAMENSDSFKPTDAARKDIDKKYREMLD”, “not soluble”. “FDKTVLQIFANYCVAAAESMAHTLMRTAHSAFVKETEDFSCTIMTPRGQTFASPKTLGATWYPGLDFSGAIDMIDGYEPGDICMTNDAYSGYVATHTPDIMMWKPVYYQGEMVCFVGGHIHNTDMGGAVPASLSRTLTEVHQEGIRFPPTKIVRRGVLNEELMRLMELNVRSPDQNRGDLQAQTAMLMTGERRIVEIIERFGLQAFKEGMAAMLDYSEQQARAIVRAMPDGEYFFAEYANEDSLNGKPLRVAITLRIRGDELEFDFTGSDPQLTSSLNMPTGGKERHVLALVGLNYVLYSLNPEILLNAGMLRVARCILPEGSVVNPLAPAAVGMRSLTCKVVQYATMGVFSQVVPDRLPASPAGGMSIVNVKTTDRDGKTIIAAIEPVGGGAGGDPYSDGADASGAIVAFLRNTPVEINETEVPIRITRYGMVPDSGGPGRYRGGLGTCMEFQVYTPNSAVTARNRDRSRFASWGVLGGKAGTVSRFLRNPGTAHEEDLGVHDFIHCQPGDVIRLEGCGGGGYGSPWERDPARVLHDVRCGYV”: the “soluble on expression in E. coli” value was “not soluble”. Turning to “FISSRANVDDLKSIENKSDFVATENMPNYVKGAFISMEDERFYKHHGFDIKGTTRALFSTISDRDVQGGSTITQQVVKNYYYDNERSFTRKIKELFVARKVEKQYSKNQILSFYMNNIYYGDNQYTVEGAANHYFGVTVDKNNSNMSQISVLQSAILASKVNAPSVYD”, the “soluble on expression in E. coli” value is on record as “not soluble”.

Take “FPPRIVNPVVTPVTDTLTDTTDTKEYAVQTAIPDQRKVARPRADALRNRERIVLAAREMFVEHGPDVPLDDVARRAGVGNATVYRNFPDRDALVREVVCSVMDRTARAAELALAETGDAFEALERFVHASADERISALCPMVASTFDQHHPDLEAARGRVERLVAEVMDRAKAAGQLRGDVGVGDLMIAAAQLSRPPAGTGCVNADRFVHRHLQLFLDGLRAPARSVLPGAAVTLEDLRRPCDQ”: the “soluble on expression in E. coli” value was “not soluble”.

On to “FQRSTPAITLESPDIKYPLRLIDREIISHDTRRFRFALPSPQHILGLPVGQHIYLSARIDGNLVVRPYTPISSDDDKGFVDLVIKVYFKDTHPKFPAGGKMSQYLESMQIGDTIEFRGPSGLLVYQGKGKFAIRPDKKSNPIIRTVKSVGMIAGGTGITPMLQVIRAIMKDPDDHTVCHLLFANQTEKDILLRPELEELRNKHSARFKLWYTLDRAPEAWDYGQGFVNEEMIRDHLPPPEEEPLVLMCGPPPMIQYACLPNLDHVGHPTERCFVF”, for which the “soluble on expression in E. coli” value is listed as “soluble”. With “FVEAIHAAEERVWITSPYFIPDEAVTAALTLAVLRGVDVRLLLPSRPDHYVVYAASSLYAFDAVRAGVRVFRYEPGFLHQKVVLVDNDITAIGSANLDNRSFRLNFELMLLTVDSDFSSQVESMLTADFNLAREISVQ”, the “soluble on expression in E. coli” value is reported as “not soluble”.

Consider “GAAEKTVVNISKVDGMPWFNRMGEGVVQAGKEFNLNASQVGPSSTDAPQQVKIIEDLIARKVDAITIVPNDANVLEPVFKKARDAGIVVLTNESPGQPSANWDVEIIDNEKFAAEYVEHMAKRMGGKGGYVIYVGSLTVPQHNLWADLLVKYQKEHYPDMHEVTRRMPVAESVDDSRRTTLDLMKTYPDLKAVVSFGSNGPIGAGRAVKEKRAKNKVAVYGMMIPSQAASLIKSGDITEGITYDPATAGYALAAVASTLLNGKTIEPGFELKELGKAEVDSDKHIIRFHKVLLVNKDNIDSLY”, for which the “soluble on expression in E. coli” value is listed as “soluble”. Consider “GAGTLIKDNLKRDLITSLPFEISLKIFNYLQFEDIINSLGVSQNWNKIIRKSTSLWKKLLISENFVSPKGFNSLNLKLSQKYPKLSQQDRLRLSFLENIFILKNWYNPKFVPQRTTLRGHMTSVITCLQFEDNYVITGADDKMIRVYDSINKKFLLQLSGHDGGVWALKYAHGGILVSGSTDRTVRVWDIKKGCCTHVFEGHNSTVRCLDIVEYKNIKYIVTGSRDNTLHVWKLPKESSVPDHGEEHDYPLVFHTPEENPYFVGVLRGHMASVRTVSGHGNIVVSGSYDNTLIVWDVAQMKCLYILSGHTDRIYSTIYDHERKRCISASMDTTIRIWDLENGELMYTLQGHTALVGLLRLSDKFLVSAAADGSIRGWDANDYSRKFSYHHTNLSAITTFYVSDNILVSGSENQFNIYNLRSGKLVHANILKDADQIWSVNFKGKTLVAAVEKDGQSFLEILDFS”, for which the “soluble on expression in E. coli” value was “soluble”. As for “GAKPNQKVIAEILKYPSPGKNPEAKVVKVLGDLDDPSIDLPSVIVKHDLPEPGEFPEEVIREANAIPARVRKKDLVGRKDLRDKVIVTIDGEDAKDFDDAISVEKLPNGNYLLGVHIADVSHYVKEGSALDQEAFKRGTSVYLIDTVIPMLPFRLSNGICSLVEGKDRLTMSVEMEIDRDGRVVRYDVYPSVIKSKKRMIYERVNEFLEDPSSMKEYEPFKDLIYNAVELAEILREARRKRGAILDIESDEVKVILDENGQVVDIVPRKRGIAEKLIEEFMIRANETVAEIFDHAGLPFMYRVHEEPDPETIFQLKNYLEAMGIRAKFSHKIHPGMLQKLLEKVKDHPLRSSVERLLVRSMKRAMY”, the entry is “soluble”; as for “GALRSLVLIGHGSHHHGESARATQQVAEALRGRGLAGHLPYDEVLEGYWQQEPGLRQVLRTVAYSDVTVVPVFLSEGYVTETVLPRELGLGHQGPVPTGGVVRVLGGRRVRYTRPLGAHPGMADAIAAQARDTLPEGTDPADVTLLLLAARPGNAALETHAQALRERGQFAGVEVVLESREALTPESHAASAVPLSEWPSRVEAGQAVLVPFLTHLGKHAAERLQQALAQAAERFPQAPPLHVGGPVGEHPAVAEVVLALAAEGREDERGGDIDQAHAEAWAALRHLAERGGRLGEVLLTPYGGLFELRHTLDEGRATLDLQTVVTPEGLRDLTARDEAGRWRPIRTWRTLPRGWRAVLSPADLRLGLELLYPAVIEESYAHEHRRLHWTPWMSTARRQTGTLARVQRATPDQVDTVAAQVCASCLRTRLWAGHTLGQTIFSGVPGGLPCAEACTVLLAAVRDEVGREAMGSGD”, “soluble”. For “GALVPRGSHMADPSLNNPVVIQATRLDASILPRNVFSKSYLLYVIAQGTDVGAIAGKANEAGQGAYDAQVKNDEQDVELADHEARIKQLRIDVDDHESRITANTKAITALNVRVTTAEGEIASLQTNVSALDGRVTTAENNISALQADYVSKTATTSQSLASPLNVTTSYSVGGKKVVGARQTGWTAATGTANKGVFDADLTFAVSDTYTQSEIQAIANALITERRRTKAMEDALRAHGLID”, the “soluble on expression in E. coli” value is reported as “soluble”.
